Results as given in patent publication US11479601B2, “Antibodies specific to Sonic Hedgehog and method of use thereof” (The Regents of the University of California, priority 2016, dated 2022).
Values joined by “and” are separate entries in the source; they are usually repeats but may differ in a detail not shown here. Identical values can stand only once.

Columns and labels:
[1] = target: T1, cell-surface Sonic Hedgehog on A549 cells (Homo sapiens, UniProt Q15465); assay: FACS of non-permeabilized A549 cells labeled with anti-Shh antibodies; format: binding; conditions: A549, without membrane permeabilization
T1 construct: recognize cell-surface expression of Sonic Hedgehog, A549 cells were labeled with in-house antibodies; endogenous in cells; host or cells: A549
Method: A549, 293T or 293T (+pCMV Shh) cells were labeled with Sonic Hedgehog (Shh) antibody (Abcam 53281, 1:100) or therapeutic test antibodies (1:100) for 1 hour at RT post serum blocking. Following two PBS washes, a FITC-conjugated secondary antibody (Abcam 97029, 1:100) or an Alexa-Fluor 647 (Invitrogen, 1:1000) was used to label cells. Samples were screened by flow cytometry using an Accuri™ C6 machine (BD Biosciences). For fluorescence activated cell sorting, samples were sorted using an S3e™ Cell Sorter (Bio-Rad) and the Shh+ population was collected. For all experiments, cells processed without primary antibody served as a negative control. Experiments were performed in duplicates or triplicates.
To corroborate that the two anti-Shh antibodies, 1C11-2G4 and 1C11-2D9, recognize cell-surface expression of Sonic Hedgehog, A549 cells were labeled with in-house antibodies and sorted via Fluorescence Activated Cell Sorting (FACS) without membrane permeabilization. […] BMC Cancer. 15:84 (2015); Singh S, Trevino J, Bora-Singhal N, Coppola D, Haura E, Altiok S, Chellappan S P. EGFR/Src/Akt signaling modulates Sox2 expression and self-renewal of stem-like side-population cells in non-small cell lung cancer. Mol Cancer. 11:73 (2012); Cochrane C R, Szczepny A, Watkins D N, Cain J E. Hedgehog Signaling in the Maintenance of Cancer Stem Cells. Cancers (Basel). […]

Shh = assay: Western blot binding to purified and cell-expressed Shh; design: species or system human; conditions: purified Shh and Shh expressed endogenously and/or exogenously in cells
Description: FIGS. 15A and 15B. Antibodies bind target SHh via Western blot. (FIG. 15A) Purified, recombinant human Shh (19.7 kDa, >98% purity by SDS-PAGE) was probed by the indicated antibodies. (FIG. 15B) Cell lysates from HEK-293T cells (PHX—Phoenix cells), with or without exogenous expression of full-length Shh, and A549 cells were probed with the antibodies produced by clones 2G4 and 2D9. Full-length Shh: ˜50 kDa; N-terminal Shh: ˜19 kDa; C-terminal Shh: ˜25 kDa. Sample 2 was lysate from PHX cells transfected with full-length Shh DNA for about 24 hours. The exogenously expressed Shh appears to be cleaved into N-terminal and C-terminal Shh peptides. Both PHX cells and A549 cells endogenously express Shh.

[2] = system: A549 cell subcutaneous xenograft tumor; assay: A549 subcutaneous xenograft, intra-tumor injection of C-terminal Shh antibody; format: in vivo, mice
Method: For xenograft formation, female nude mice, 5 to 10 weeks old, were injected subcutaneously (SC) with 10 million A549 cells in the dorsal area in a volume of […]. For SC inoculation of sorted cells, 1,500 cells of A549 Shh+ or Shh− cells were injected in a volume of […]. For intra-veinous injection of sorted cells, 1,000 cells of A549 Shh+ or Shh− cells were injected in the tail vein. For the in vivo treatment assay, after xenograft formation, animals were injected intravenously with cisplatin (10 mg/kg weekly), docetaxel (10 mg/kg twice a week) or vehicle, and intraperitoneally with GDC0449 (20 mg/kg daily) or vehicle. Each group consisted in 4-5 mice. Tumor size was determined twice a week, and tumor volumes were calculated using width (x) and length (y) (x^2y/2, where x<y). Tumors were collected after mice euthanasia, and cell dissociation was performed as for fresh human samples (cf supra). Flow cytometry and FACS were done as described supra. All animals were cared in accord with University of California San Francisco (UCSF) guidelines.
(§1) The in vivo effect of the C-terminal Shh antibodies were tested using the A549 cell subcutaneous xenograft tumor model in mice, as described in Example 1. After xenograft formation, animals were intra-tumor injected with a C terminal Shh antibody (2G4 or 2D9; each at 158 μg), or a control solution, 3 times a week for about 3 weeks (at 2-3 day intervals). Tumor volume was determined, as described in Example 1, every 2 days. Weight and size of the excised tumor were determined after the antibody treatment. A portion of the excised tumor was sectioned for immunohistochemical analysis of Shh protein expression, and RNA was extracted from another portion of the excised tumor for analysis of Gli1 expression.

GLI = assay: Ex vivo GLI expression in excised A549 xenograft tumors; design: species or system mice; conditions: tumors after 8 mg/kg treatment, versus IgG controls
Method: as §1, with “A portion of the excised tumor was sectioned for immunohistochemical analysis of Shh protein expression, and RNA was extracted from another portion of the excised tumor for analysis of Gli1 expression.” left out
Total protein from whole-cell lysates was prepared with M-PER buffer (ThermoFisher Scientific) and from frozen tissues with T-PER (ThermoFisher Scientific) supplemented with protease and phosphatase inhibitors (Roche). Subsequently protein concentrations were determined via a Bradford assay. Equal quantities of proteins were combined with 5× protein loading buffer and separated by SDS-PAGE followed by PVDF membrane transfer. […]
Antibody-treated tumors were harvested to extract total RNA using Trizol (Invitrogen) and cDNA was synthesized using reverse transcriptase from iScript's cDNA Synthesis Kit (Bio-Rad). Real-time quantitative reverse transcript-polymerase chain reaction (qRT-PCR) was performed with TaqMan® Universal PCR Master Mix (Life Technologies) using gene specific PCR primers for human […] (Life Technologies). […]

B1: 2G4: purified mouse monoclonal C-terminal Shh antibody from hybridoma sub-clone 2G4 of clone 1C11, IgG1 kappa (antibody, V domains shown)
VH: EVKLVESGGGLVKPGGSLKLSCAASGFTFSSYTMSWVRQTPAKRLEWVATISSGGGNTYYPDSVKGRFTISRDNARNTLYLQMSSLRSEDTAMYYCARDYRSLFAYWGQGTLVTVSA
VL: QIVLTQSPAIMSASPGEKVTITCSASSSVSYMHWFQQKPGTSPKLWIYSTSNLASGVPARFSGSGSGTSYSLTISRMEAEDAATYYCQQRSSYPFTFGSGTKLEIK
B1 was tested, and the “Shh+ cells recognized from a mixed population (FACS)” value [1] was 0.11%, the “binding to Shh by Western blot” value (Shh) was “bound to purified Shh” and the “Average % change in tumor volume, relative to day −2” value ([2]; Day 0) was 104.50%. The “Average change in tumor volume” value ([2]; Day 0, 158 μg intra-tumor 3 times a week) was 14.6 mm^3, the “Average % change in tumor volume, relative to day −2” value ([2]; Day 2) was 90.20% and the “Average change in tumor volume” value ([2]; Day 2) was −21.7 mm^3. The “Average % change in tumor volume, relative to day −2” value ([2]; Day 5) was 103.10%, the “Average change in tumor volume” value ([2]; Day 5) was 15.3 mm^3 and the “Average % change in tumor volume, relative to day −2” value ([2]; Day 7) was 105.80%. The “Average change in tumor volume” value ([2]; Day 7) was 33.5 mm^3, the “Average % change in tumor volume, relative to day −2” value ([2]; Day 12) was 121.90% and the “Average change in tumor volume” value ([2]; Day 12) was 103 mm^3. The “Average % change in tumor volume, relative to day −2” value ([2]; Day 14) was 137.70%, the “Average change in tumor volume” value ([2]; Day 14) was 138.2 mm^3 and the “Average % change in tumor volume, relative to day −2” value ([2]; Day 16) was 148%. For the same molecule, the “Average change in tumor volume” value ([2]; Day 16) was 174.04 mm^3, the “Average % change in tumor volume, relative to day −2” value ([2]; Day 19) was 189.60% and the “Average change in tumor volume” value ([2]; Day 19) was 277.7 mm^3. For the same molecule, the “Average % change in tumor volume, relative to day −2” value ([2]; Day 21) was 202.40%, the “Average change in tumor volume” value ([2]; Day 21) was 337.8 mm^3 and the “Average % change in tumor volume, relative to day −2” value ([2]; Day −2) was 100%. For the same molecule, the “Weight of tumor after treatment, AVG” value ([2]; average of 3 animals) was 0.0644, the “Weight of tumor after treatment” value ([2]; individual animals) was 0.048 and 0.0966 and 0.0486 and the “GLI transcripts (qRT-PCR) and GLI polypeptide expression (Western blot) in tumors” value (GLI) was “significant reduction in GLI transcripts”.
